According to US20160228570A1 (QUEEN MARY AND WESTFIELD COLLEGE, published 2016):
Each block holds one binder with its values, some of them ahead of it.

How the values were obtained:
[1] = target: T1, native bovine serum albumin (bovine, UniProt P02769 25-607); assay: ELISA (data not shown)
T1 construct: Control antigen; also called BSA; native BSA

[2] = target: T2, free radical modified BSA (bovine, UniProt P02769 25-607, modified as CII (OH, HOCl, ONOO or 2M ribose); residues not stated); assay: ELISA (data not shown)
T2 construct: Written as printed, as one entry
T2 sequence (P02769 25-607 limits assumed): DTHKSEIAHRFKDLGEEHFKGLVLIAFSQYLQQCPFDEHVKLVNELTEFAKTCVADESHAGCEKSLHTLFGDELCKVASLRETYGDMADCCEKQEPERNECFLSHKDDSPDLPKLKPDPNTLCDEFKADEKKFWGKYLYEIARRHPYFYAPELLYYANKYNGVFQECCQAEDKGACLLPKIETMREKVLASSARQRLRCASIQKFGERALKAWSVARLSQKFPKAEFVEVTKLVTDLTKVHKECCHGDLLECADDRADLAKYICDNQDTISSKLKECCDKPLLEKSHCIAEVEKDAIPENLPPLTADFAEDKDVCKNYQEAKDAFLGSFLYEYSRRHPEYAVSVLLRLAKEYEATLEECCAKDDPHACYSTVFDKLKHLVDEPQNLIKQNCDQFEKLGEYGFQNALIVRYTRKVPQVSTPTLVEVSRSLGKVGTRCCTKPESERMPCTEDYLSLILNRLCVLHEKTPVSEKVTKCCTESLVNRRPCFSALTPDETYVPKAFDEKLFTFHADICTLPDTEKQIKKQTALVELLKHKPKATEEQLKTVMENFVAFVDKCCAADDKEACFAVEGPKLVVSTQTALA

[3] = target: T3, native non-modified collagen type II (CII) (bovine, UniProt P02459 201-1214); assay: ELISA, purified scFv on coated antigen
T3 construct: also called native CII
T3 sequence (P02459 201-1214): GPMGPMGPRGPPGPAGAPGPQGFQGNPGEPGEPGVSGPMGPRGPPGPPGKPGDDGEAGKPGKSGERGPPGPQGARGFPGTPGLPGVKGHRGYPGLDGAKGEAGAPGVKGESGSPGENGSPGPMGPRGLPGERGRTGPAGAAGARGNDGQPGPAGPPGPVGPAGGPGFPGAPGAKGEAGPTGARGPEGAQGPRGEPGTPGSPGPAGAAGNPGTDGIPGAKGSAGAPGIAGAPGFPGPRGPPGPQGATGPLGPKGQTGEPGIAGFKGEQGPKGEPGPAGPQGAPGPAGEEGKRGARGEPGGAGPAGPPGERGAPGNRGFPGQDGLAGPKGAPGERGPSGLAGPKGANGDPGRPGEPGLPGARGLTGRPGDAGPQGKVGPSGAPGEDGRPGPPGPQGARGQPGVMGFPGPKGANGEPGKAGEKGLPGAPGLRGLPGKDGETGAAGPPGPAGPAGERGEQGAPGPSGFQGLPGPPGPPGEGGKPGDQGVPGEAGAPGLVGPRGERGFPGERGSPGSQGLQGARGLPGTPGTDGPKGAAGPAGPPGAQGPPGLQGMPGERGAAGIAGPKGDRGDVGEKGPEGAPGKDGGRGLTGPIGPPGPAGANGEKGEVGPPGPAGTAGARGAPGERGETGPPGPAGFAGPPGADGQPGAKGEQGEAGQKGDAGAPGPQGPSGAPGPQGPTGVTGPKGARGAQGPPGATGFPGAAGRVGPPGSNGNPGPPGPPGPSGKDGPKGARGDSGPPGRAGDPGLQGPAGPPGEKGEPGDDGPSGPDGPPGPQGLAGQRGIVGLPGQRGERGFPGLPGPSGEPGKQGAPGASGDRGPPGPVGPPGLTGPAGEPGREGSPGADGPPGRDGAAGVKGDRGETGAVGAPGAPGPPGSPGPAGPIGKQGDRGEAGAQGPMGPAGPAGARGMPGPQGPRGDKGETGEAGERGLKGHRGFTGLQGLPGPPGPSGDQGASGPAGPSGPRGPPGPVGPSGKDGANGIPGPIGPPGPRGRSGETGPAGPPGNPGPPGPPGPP
Method: (§1) Screening for positive anti-modified CII phage clones was first performed by enzyme-linked immunosorbent assay (ELISA), as previously described (Harrison J. L, 1996). Microtiter plate (Nunc, Paisley, UK) wells were coated with 10 μg/ml native or modified CII and incubated with 100 μl phage suspension for 90 minutes. In addition, native and modified BSA were used as negative control. After removal of the supernatants, the amount of bound phage was determined using peroxidase-labeled anti-M13 antibodies (GE Healthcare: Ltd, Little Chalfont, Buckinghamshire) and developed by using 100 mM 3,3′5,5′ tetramethylbenzidine (TMB) as substrate. The reaction was monitored in an ELISA reader at 450 nm with a reference wavelength of 650 nm using GENios plate reader (TECAN, Theale Court, Reading UK) and Magellan software (TECAN, Theale Court, Reading UK)
(§2) The reactive phage clones obtained from E. coli TG-1 bacteria were used to infect E. coli HB2151 non-suppressor bacterial strain to obtain soluble scFv. […] Binding of purified scFv to modified CII was first analyzed by ELISA as above except that mouse anti-myc tag antibody (Santa Cruz Biotechnology, INC, Wembley, UK) followed by anti-mouse-HRP conjugate (Sigma, Dorset, UK) were used to probe bound scFv.

HOCl modified CII = target: T4, HOCl modified CII (bovine, UniProt P02459 201-1214, modified with HOCl; residues not stated); assay: ELISA, purified scFv on coated antigen
T4 construct: also called HOCl-CII; HOCl-Collagen II
T4 sequence (P02459 201-1214): as above
Method: as §1, §2

ribose-modified CII = target: T5, ribose-modified CII (bovine, UniProt P02459 201-1214, glycated with 2M ribose, overnight at 37 C; residues not stated); assay: ELISA, purified scFv on coated antigen
T5 construct: also called Ribose-CII; glycated CII
T5 sequence (P02459 201-1214): as above
Method: as §1, §2

peroxynitrated CII = target: T6, peroxynitrated CII (bovine, UniProt P02459 201-1214, modified with peroxynitrite (ONOO); residues not stated); assay: ELISA, purified scFv on coated antigen
T6 construct: also called CII modified with ONOO; peroxynitrite-modified CII
T6 sequence (P02459 201-1214): as above
Method: as §1, §2

T1 sequence (P02769 25-607 limits assumed): as the sequence (P02769 25-607 limits assumed) above

- binding result [1]: no binding
- binding result [2]: no binding
B1: scFv 6-11D (scFv, not shown: small tags and cut ends)
scFv: EVQLLESGGGLVQPGGSLRLSCAASGFTFSSYAMSWVRQAPGKGLEWVSSIDTGGSYTDYADSVKGRFTISRDNSKNTLYLQMNSLRAEDTAVYYCAKSYTTFDYWGQGTLVTVSSGGGGSGGGGSGGGGSTDIQMTQSPSSLSASVGDRVTITCRASQSISSYLNWYQQKPGKAPKLLIYSASYLQSGVPSRFSGSGSGTDFTLTISSLQPEDFATYYCQQGSNSPTTFGQGTKVEIKR
notes: also called clone 6-11D; 4-5H

- binding result [1]: no binding
- binding result [2]: no binding
- binding result [3]: no binding
- binding result (HOCl modified CII): no binding
- binding result (ribose-modified CII): no binding
- binding result (peroxynitrated CII): no binding
B2: scFv 12E (scFv, not shown: small tags and cut ends)
scFv: EVQLLESGGGLVQPGGSLRLSCAASGFTFSSYAMSWVRQAPGKGLEWVSSINDSGTTTYYADSVKGRFTISRDNSKNTLYLQMNSLRAEDTAVYYCAKNYSAFDYWGQGTLVTVSSGGGGSGGGGSGGGGSTDIQMTQSPSSLSASVGDRVTITCRASQSISSYLNWYQQKPGKAPKLLIYAASDLQSGVPSRFSGSGSGTDFTLTISSLQPEDFATYYCQQSDSAPTTFGQGTKVEIKR
notes: Purified soluble scFv; also called clone 12E

- binding result [1]: no binding
- binding result [2]: no binding
B3: scFv 1-11E (scFv, not shown: large carriers; small tags and cut ends)
scFv: EVQLLESGGGLVQPGGSLRLSCAASGFTFSSYAMSWVRQAPGKGLEWVSSIDDSGATTYYADSVKGRFTISRDNSKNTLYLQMNSLRAEDTAVYYCAKNYSSFDYWGQGTLVTVSSGGGGSGGGGSGGGGSTDIQMTQSPSSLSASVGDRVTITCRASQSISSYLNWYQQKPGKAPKLLIYYASSLQSGVPSRFSGSGSGTDFTLTISSLQPEDFATYYCQQAANYPTTFGQGTKVEIK
notes: its first MA and last DI may come from cloning into the fusion; also called clone 1-11E; 1-2F
